Where two headings read alike, the source gives them in different places.
Legend:
[1] = molecular target: T1, 4H347-AA; assay: two-hybrid library CCmax;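 also: natural log of median RNA to DNA barcode read ratio; higher means stronger binding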
T1 chain: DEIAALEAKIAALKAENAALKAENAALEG

[2] = molecular target: T2, 4H3493-AA; assay: two-hybrid library CCmax;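 also: natural log of median RNA to DNA barcode read ratio; higher means stronger binding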
T2 chain: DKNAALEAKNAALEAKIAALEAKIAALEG

[3] = molecular target: T3, 4H376-AA; assay: two-hybrid library CCmax; settings: mean of both orientations;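 also: natural log of median RNA to DNA barcode read ratio; higher means stronger binding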
T3 chain: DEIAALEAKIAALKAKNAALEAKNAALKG

[4] = molecular target: T4, 4H406-AA; assay: two-hybrid library CCmax; settings: mean of both orientations;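 also: natural log of median RNA to DNA barcode read ratio; higher means stronger binding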
T4 chain: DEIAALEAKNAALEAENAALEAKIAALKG

[5] = molecular target: T5, 4H452-AA; assay: two-hybrid library CCmax; settings: mean of both orientations;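 also: natural log of median RNA to DNA barcode read ratio; higher means stronger binding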
T5 chain: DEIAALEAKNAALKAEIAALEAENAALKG

[6] = molecular target: T6, 4H56-AA; assay: two-hybrid library CCmax; settings: mean of both orientations;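 also: natural log of median RNA to DNA barcode read ratio; higher means stronger binding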
T6 chain: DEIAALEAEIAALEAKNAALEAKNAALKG

[7] = molecular target: T7, 4H688-AA; assay: two-hybrid library CCmax; settings: mean of both orientations
T7 chain: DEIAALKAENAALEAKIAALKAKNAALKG

[8] = molecular target: T8, 4H963-AA; assay: two-hybrid library CCmax; settings: mean of both orientations
T8 chain: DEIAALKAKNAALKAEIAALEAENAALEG

[9] = molecular target: T9, 4H_APH; assay: two-hybrid library CCmax; settings: mean of both orientations
T9 chain: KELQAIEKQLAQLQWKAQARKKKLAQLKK

[10] = molecular target: T10, 4H_BCR; assay: two-hybrid library CCmax; settings: mean of both orientations
T10 chain: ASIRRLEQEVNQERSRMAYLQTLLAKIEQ

[11] = molecular target: 4H_GCN4; assay: two-hybrid library CCmax
[12] = molecular target: GCN2_T; assay: two-hybrid library CCmax; settings: mean of both orientations
[13] = molecular target: T11, APC3265-AA; assay: two-hybrid library CCmax
T11 chain: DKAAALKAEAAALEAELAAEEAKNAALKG

[14] = molecular target: T12, APC3323-AA; assay: two-hybrid library CCmax; settings: mean of both orientations
T12 chain: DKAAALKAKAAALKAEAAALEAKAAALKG

[15] = molecular target: T13, APC3354-AA; assay: two-hybrid library CCmax; settings: mean of both orientations
T13 chain: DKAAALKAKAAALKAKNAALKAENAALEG

[16] = molecular target: T14, APC3881-AA; assay: two-hybrid library CCmax; settings: mean of both orientations
T14 chain: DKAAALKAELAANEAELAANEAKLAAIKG

[17] = molecular target: T15, APC4100-AA; assay: two-hybrid library CCmax; settings: mean of both orientations
T15 chain: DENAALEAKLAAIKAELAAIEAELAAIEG

[18] = molecular target: T16, APC4336-AA; assay: two-hybrid library CCmax; settings: mean of both orientations
T16 chain: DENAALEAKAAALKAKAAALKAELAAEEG

[19] = molecular target: T17, APC5009-AA; assay: two-hybrid library CCmax; settings: mean of both orientations
T17 chain: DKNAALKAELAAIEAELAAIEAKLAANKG

[20] = molecular target: T18, APC542-AA; assay: two-hybrid library CCmax; settings: mean of both orientations
T18 chain: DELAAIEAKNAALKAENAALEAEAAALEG

[21] = molecular target: T19, APC5531-AA; assay: two-hybrid library CCmax; settings: mean of both orientations
T19 chain: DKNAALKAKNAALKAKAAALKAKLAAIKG

[22] = molecular target: T20, APC6088-AA; assay: two-hybrid library CCmax; settings: mean of both orientations
T20 chain: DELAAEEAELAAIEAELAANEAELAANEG

[23] = molecular target: T21, APC7524-AA; assay: two-hybrid library CCmax; settings: mean of both orientations
T21 chain: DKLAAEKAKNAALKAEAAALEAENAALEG

[24] = molecular target: T22, APC8401-AA; assay: two-hybrid library CCmax; settings: mean of both orientations
T22 chain: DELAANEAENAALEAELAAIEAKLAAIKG

[25] = molecular target: T23, APC8516-AA; assay: two-hybrid library CCmax; settings: mean of both orientations
T23 chain: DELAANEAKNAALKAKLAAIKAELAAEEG

[26] = molecular target: T24, APC9141-AA; assay: two-hybrid library CCmax; settings: mean of both orientations
T24 chain: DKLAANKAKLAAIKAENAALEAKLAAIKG

[27] = molecular target: T25, APC9182-AA; assay: two-hybrid library CCmax; settings: mean of both orientations
T25 chain: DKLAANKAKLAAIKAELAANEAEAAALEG

[28] = molecular target: T26, APC9291-AA; assay: two-hybrid library CCmax; settings: mean of both orientations
T26 chain: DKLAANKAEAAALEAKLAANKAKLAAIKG

[29] = molecular target: T27, APC9806-AA; assay: two-hybrid library CCmax; settings: mean of both orientations
T27 chain: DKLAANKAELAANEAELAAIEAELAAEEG

[30] = molecular target: T28, 4H3381-AA; assay: two-hybrid library CCmax
T28 chain: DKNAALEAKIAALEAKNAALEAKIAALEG

[31] = molecular target: T29, 4H3395-AA; assay: two-hybrid library CCmax; settings: mean of both orientations
T29 chain: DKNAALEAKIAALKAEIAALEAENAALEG

[32] = molecular target: T30, 4H3410-AA; assay: two-hybrid library CCmax; settings: mean of both orientations
T30 chain: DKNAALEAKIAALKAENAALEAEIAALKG

[33] = molecular target: T31, 4H3590-AA; assay: two-hybrid library CCmax; settings: mean of both orientations
T31 chain: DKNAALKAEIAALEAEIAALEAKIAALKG

[34] = molecular target: T32, 4H3697-AA; assay: two-hybrid library CCmax; settings: mean of both orientations
T32 chain: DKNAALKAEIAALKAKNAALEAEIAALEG

[35] = molecular target: T33, 4H3753-AA; assay: two-hybrid library CCmax; settings: mean of both orientations
T33 chain: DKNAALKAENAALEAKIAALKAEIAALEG

[36] = molecular target: T34, 4H3865-AA; assay: two-hybrid library CCmax; settings: mean of both orientations
T34 chain: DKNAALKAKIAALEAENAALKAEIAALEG

[37] = molecular target: T35, 4H458-AA; assay: two-hybrid library CCmax; settings: mean of both orientations
T35 chain: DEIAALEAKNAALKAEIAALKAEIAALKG

[38] = molecular target: T36, 4H485-AA; assay: two-hybrid library CCmax; settings: mean of both orientations
T36 chain: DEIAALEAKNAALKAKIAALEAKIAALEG

[39] = molecular target: T37, 4H536-AA; assay: two-hybrid library CCmax; settings: mean of both orientations
T37 chain: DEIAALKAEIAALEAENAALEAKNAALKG

[40] = molecular target: T38, 4H570-AA; assay: two-hybrid library CCmax; settings: mean of both orientations
T38 chain: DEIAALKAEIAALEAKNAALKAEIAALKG

[41] = molecular target: T39, 4H629-AA; assay: two-hybrid library CCmax; settings: mean of both orientations
T39 chain: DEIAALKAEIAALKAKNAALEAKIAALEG

[42] = molecular target: T40, 4H710-AA; assay: two-hybrid library CCmax; settings: mean of both orientations
T40 chain: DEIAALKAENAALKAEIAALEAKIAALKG

[43] = molecular target: T41, 4H745-AA; assay: two-hybrid library CCmax; settings: mean of both orientations
T41 chain: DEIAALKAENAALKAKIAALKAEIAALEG

[44] = molecular target: T42, 4H797-AA; assay: two-hybrid library CCmax; settings: mean of both orientations
T42 chain: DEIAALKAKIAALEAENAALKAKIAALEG

[45] = molecular target: T43, 4H850-AA; assay: two-hybrid library CCmax; settings: mean of both orientations
T43 chain: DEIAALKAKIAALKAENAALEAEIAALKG

[46] = molecular target: T44, 4H891-AA; assay: two-hybrid library CCmax; settings: mean of both orientations
T44 chain: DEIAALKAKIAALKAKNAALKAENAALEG

[47] = molecular target: T45, 4H909-AA; assay: two-hybrid library CCmax; settings: mean of both orientations
T45 chain: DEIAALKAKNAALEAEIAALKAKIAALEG

[48] = molecular target: T46, 4H930-AA; assay: two-hybrid library CCmax; settings: mean of both orientations
T46 chain: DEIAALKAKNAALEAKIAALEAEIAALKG

[49] = molecular target: T47, 4H94-AA; assay: two-hybrid library CCmax; settings: mean of both orientations
T47 chain: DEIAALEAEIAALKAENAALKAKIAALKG

[50] = molecular target: T48, O7; assay: two-hybrid library CCNG1
T48 chain: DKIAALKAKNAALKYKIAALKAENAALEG

[51] = molecular target: T49, O8; assay: two-hybrid library CCNG1
T49 chain: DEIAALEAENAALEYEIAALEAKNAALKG

[52] = molecular target: T50, O9; assay: two-hybrid library CCNG1
T50 chain: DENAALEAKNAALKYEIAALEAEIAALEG

[53] = molecular target: T51, O6-bS; assay: two-hybrid library CCNG1
T51 chain: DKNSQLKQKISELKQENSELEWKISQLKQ

[54] = molecular target: T52, O7-bS; assay: two-hybrid library CCNG1
T52 chain: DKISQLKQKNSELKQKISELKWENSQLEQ

[55] = molecular target: T53, O8-bS; assay: two-hybrid library CCNG1
T53 chain: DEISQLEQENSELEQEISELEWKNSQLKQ

[56] = molecular target: T54, O9-bS; assay: two-hybrid library CCNG1
T54 chain: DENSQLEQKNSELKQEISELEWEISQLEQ

Sequence of 4H_GCN4 (chain, as listed by the source): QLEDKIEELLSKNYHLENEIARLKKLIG

DEIAALEAKIAALKAENAALKAENAALEG [4H347-AA]
interaction score [1]: -0.315
interaction score ([2]; mean of both orientations): -2.08
interaction score [3]: -1.06
interaction score [4]: -1.21
interaction score [5]: -0.224
interaction score [6]: -0.0342
interaction score [7]: -0.941
interaction score [8]: -1.41
interaction score [9]: -1.79
interaction score [10]: -1.88
interaction score [11]: -2.04
interaction score [12]: -2.14

DKAAALKAEAAALEAELAAEEAKNAALKG [APC3265-AA]
interaction score [13]: -1.08
interaction score [14]: -1.79
interaction score [15]: -1.86
interaction score [16]: -1.45
interaction score [17]: -1.05
interaction score [18]: -1.54
interaction score [19]: -1.45
interaction score [20]: -1.56
interaction score [21]: -1.82
interaction score [22]: -1.89
interaction score [23]: -1.43
interaction score [24]: -1.36
interaction score [25]: -1.33
interaction score [26]: -1.63
interaction score [27]: -1.78
interaction score [28]: -1.49
interaction score [29]: -1.38

DKNAALEAKNAALEAKIAALEAKIAALEG [4H3493-AA]
interaction score [2]: 0.972
interaction score [3]: -1.47
interaction score [4]: -1.82
interaction score [7]: -1.63
interaction score [8]: -1.58

DKNAALEAKIAALEAKNAALEAKIAALEG [4H3381-AA]
interaction score [30]: 0.71
interaction score [31]: -1.66
interaction score [32]: -1.09
interaction score ([1]; mean of both orientations): -1.55
interaction score ([2]; mean of both orientations): -1.77
interaction score [33]: -1.02
interaction score [34]: -1.45
interaction score [35]: -1.71
interaction score [3]: -1.55
interaction score [36]: -1.52
interaction score [4]: -1.15
interaction score [37]: -1.53
interaction score [38]: -0.941
interaction score [39]: -1.65
interaction score [40]: -1.34
interaction score [41]: -1.4
interaction score [7]: -1.36
interaction score [42]: -1.49
interaction score [43]: -1.6
interaction score [44]: -1.57
interaction score [45]: -1.85
interaction score [46]: -1.56
interaction score [47]: -1.66
interaction score [48]: -1.38
interaction score [49]: -1.76
interaction score [8]: -2.17

DKIAALKAKNAALKYKIAALKAENAALEG [O7]
interaction score [50]: -2.89
interaction score [51]: 1.54
interaction score [52]: -2.46

DKNSQLKQKISELKQENSELEWKISQLKQ [O6-bS]
interaction score [53]: -1.84
interaction score [54]: -0.489
interaction score [55]: -1.78
interaction score [56]: -0.588
